Here are results for one molecule from patent publication US8034783B2, “Prodomain modulators of ADAM 10” (Biozyme, Inc., priority 2006, dated 2011).

Holding throughout (assay type): biochemical
One assay concerns the target T1, TACE (human) Cat (Homo sapiens, UniProt P78536).
T1 construct: TACE catalytic domain, Marcos Milla, University of Pennsylvania; donated by Marcos Milla, University of Pennsylvania
In words: Inhibition assay with TACE catalytic domain, fluorescent substrate. As to conditions: room temperature; read-out: inhibition constant, TACE (human) Cat. The protocol:
(§1) Inhibition assays with TACE and ADAM 10. Activity of TACE catalytic/disintegrin, TACE catalytic, or ADAM10 catalytic/disintegrin constructs was monitored at 3 minute intervals using the fluorescent substrate, Dabcyl-LAQAHomoPheRSC(Fluorescein)-NH2 (SEQ ID NO 17) with excitation 485 nm and emission 530 nm. The substrate was diluted from a 10 mM stock in DMSO to 10 μM in assay buffer containing 20 mM Tris, pH 8.0, and 0.0006% Brij-35. Reactions were run in a 96-well black-coated plate with either ADAM10 prodomain (10 nM-1.0 μM) alone or with enzyme. Concentrations of enzyme ranged from 0.5-2.0 nM for TACE and 5-15 nM for ADAM10. For assays with TACE and ADAM8 prodomain, the range of concentrations varied from 1-4.7 μM.
(§2) Calculation of inhibition constants. The amount of activity was calculated by subtracting the ADAM 10 prodomain control from the ADAM 10 prodomain with enzyme. All inhibition assays were performed at room temperature and the data fit to the following equation using Sigma Plot software:
(§3) [formula] where If is fractional inhibition, I is the inhibitor concentration and Ki is the inhibition constant.

The target of a further assay is T2, ADAM 10 (human) Cat/Dis (Homo sapiens, UniProt O14672).
T2 construct: containing the catalytic/disintegrin domains; purchased R & D Systems (Minneapolis, Minn., USA)
T2 sequence (O14672 214-672 limits assumed): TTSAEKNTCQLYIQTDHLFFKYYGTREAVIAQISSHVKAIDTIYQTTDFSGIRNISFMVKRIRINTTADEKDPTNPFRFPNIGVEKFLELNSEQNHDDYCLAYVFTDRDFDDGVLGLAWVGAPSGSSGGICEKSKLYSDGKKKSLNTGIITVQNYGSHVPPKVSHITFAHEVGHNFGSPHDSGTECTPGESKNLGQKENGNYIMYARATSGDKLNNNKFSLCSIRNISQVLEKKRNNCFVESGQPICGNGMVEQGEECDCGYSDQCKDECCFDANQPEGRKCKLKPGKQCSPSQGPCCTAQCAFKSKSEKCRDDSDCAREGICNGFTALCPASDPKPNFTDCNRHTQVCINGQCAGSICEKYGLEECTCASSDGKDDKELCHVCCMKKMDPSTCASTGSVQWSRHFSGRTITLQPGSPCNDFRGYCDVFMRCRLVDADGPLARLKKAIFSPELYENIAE
In words: Inhibition assay with ADAM10 catalytic/disintegrin construct, fluorescent substrate. As to conditions: room temperature, 10 μM fluorescent substrate; read-out: inhibition constant (Ki), ADAM 10 (human) Cat/Dis. The protocol:
as §1, §2, §3
Wild type ADAM 10 prodomain (23-213) was tested to determine the mode of inhibition of ADAM 10 protein. ADAM 10 protein was diluted 1:100 in buffer 25 mM Tris pH 8, 0.0006% Brij-35 and then 10 μl was added to 88 μl of substrate (20-100 μM), Dabcyl-LAQAHomoPheRSC(Fluorescein)-NH2 with excitation 485 nm and emission 530 nm. Prodomain, 2 μl, in 25 mM Tris, pH 8, 100 mM NaCl, 10% glycerol, 0.1% mercaptoethanol, and 50 μM CaCl2 was added to substrate before addition of enzyme. The final concentration of prodomain ranged from 17-170 nM. The fluorescence vs time was plotted, and slopes were taken from straight line fits of initial velocities. The reciprocal of the velocities was plotted vs the reciprocal of substrate squared since the normal Lineweaver Burke plot gave curved lines. The initial velocities vs substrate concentrations were fit as a family of curves to several allosteric models.

In another assay the test system is MMP 1, 2, 3, 9, 13, 14. The experiment in a line: Inhibition assays with MMPs. The protocol:
Inhibition assays with MMPs. The fluorescent substrate Dabcyl-GPLGMRGC (Fluorescein)-NH2 (SEQ ID NO 18) (10 μM) in assay buffer containing 50 mM Tris, pH 7.5, 150 mM NaCl, 2 mM CaCl2, 5 μM ZnSO4, and 0.01% Brij-35 was used to monitor enzyme activities. MMPs 1, 2, 3, 9, 13, and 14 (0.1-20 nM) were incubated with substrate in the absence or presence of prodomain (3-30 μM). Fluorescence intensities were measured every 3-5 minutes at an emission wavelength of 530 nm (excitation 485 nm).
as §2, §3

Another assay concerns the target T3, TACE (human) Cat/Dis (Homo sapiens, UniProt P78536).
T3 construct: containing the catalytic/disintegrin domains; purchased R & D Systems (Minneapolis, Minn., USA)
In words: Inhibition assay with TACE catalytic/disintegrin construct, fluorescent substrate. As to conditions: room temperature; read-out: inhibition constant, TACE (human) Cat/Dis. The protocol: as §1, §2, §3

Bounds are passed on as bounds.

T1 sequence (P78536 223-474 limits assumed): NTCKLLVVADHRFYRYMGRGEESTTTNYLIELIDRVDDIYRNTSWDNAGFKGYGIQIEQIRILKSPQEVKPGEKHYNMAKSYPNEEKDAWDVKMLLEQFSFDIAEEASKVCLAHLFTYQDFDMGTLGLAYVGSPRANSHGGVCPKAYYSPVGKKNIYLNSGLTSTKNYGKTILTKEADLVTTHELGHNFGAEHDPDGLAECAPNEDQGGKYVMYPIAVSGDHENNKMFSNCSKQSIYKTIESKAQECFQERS
T3 sequence (P78536 215-671 limits assumed): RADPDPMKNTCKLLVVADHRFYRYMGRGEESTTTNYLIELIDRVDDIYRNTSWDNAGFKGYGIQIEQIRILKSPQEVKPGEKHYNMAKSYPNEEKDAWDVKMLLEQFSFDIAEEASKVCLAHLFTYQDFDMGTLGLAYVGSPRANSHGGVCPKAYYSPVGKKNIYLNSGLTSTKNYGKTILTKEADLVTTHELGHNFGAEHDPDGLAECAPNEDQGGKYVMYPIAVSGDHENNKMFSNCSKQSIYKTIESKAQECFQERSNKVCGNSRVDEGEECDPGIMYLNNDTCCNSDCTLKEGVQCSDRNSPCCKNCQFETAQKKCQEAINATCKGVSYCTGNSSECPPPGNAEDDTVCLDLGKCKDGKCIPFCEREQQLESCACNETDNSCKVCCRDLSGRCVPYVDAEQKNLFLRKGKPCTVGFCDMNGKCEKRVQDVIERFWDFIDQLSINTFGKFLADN

B1: C173S ProADAM 10 23-213 (C-terminal His tag): mouse ADAM 10 prodomain 23-213 with cysteine 173 mutated to serine, C-terminal His tag (protein, UniProt O35598 23-213, looked up, variant C173S)
chain: NPLNKYIRHYEGLSYNVDSLHQKHQRAKRAVSHEDQFLLLDFHAHGRQFNLRMKRDTSLFSDEFKVETSNKVLDYDTSHIYTGHIYGEEGSFSHGSVIDGRFEGFIKTRGGTFYIEPAERYIKDRILPFHSVIYHEDDINYPHKYGPQGGSADHSVFERMRKYQMTGVEEGARAHPEKHAASSGPELLRKK
modifications: pro-form C-terminal His tag
notes: mouse ADAM 10 prodomain 23-213 with cysteine 173 mutated to serine, C-terminal His tag
As to B1, the Ki with TACE (human) Cat is > 3000 nM; with ADAM 10 (human) Cat/Dis, 36 ± 9 nM; on MMP 1, 2, 3, 9, 13, 14 (read-out: inhibition constant, MMP 1, 2, 3, 9, 13, 14), > 2000 nM; in the assay with TACE (human) Cat/Dis, > 3000 nM. In the assay with MMP 1, 2, 3, 9, 13, 14 (3 μM prodomain), the “inhibition of matrix metalloproteinases 1, 2, 3, 9, 13 and 14” value is “not inhibited”.
